Reference: patent US10689651B2, “Method of inhibiting macrophage activation using an inhibitor of PARP9” (THE BRIGHAM AND WOMEN'S HOSPITAL, INC., priority 2013, dated 2020)
“Also recorded” adds a separate entry of the source.

Target: T1, PARP14 (Homo sapiens, UniProt Q460N5)
T1 construct: purchased BPS Bioscience Inc
Test: Ribosylation assay: PARP14-mediated ADP-ribosylation of STAT1α
Assay type: biochemical
Conditions: recombinant proteins; for PARP14-induced mono ADP-ribosylation at Glu657 and Glu705 of STAT1α: LC-MS/MS, MS1 AUC quantification
Excerpt: The high resolution/accuracy LTQ-Orbitrap Elite (Thermo Scientific) analyzed TMT peptide samples and the Q Exactive (Thermo Scientific) analyzed in vitro ribosylated peptides. Both mass spectrometers are fronted with a Nanospray FLEX ion source, and coupled to an Easy-nLC1000 HPLC pump (Thermo Scientific). The peptides were subjected to a dual column set-up: an Acclaim PepMap RSLC C18 trap column, 75 um×20 cm (50 um×15 cm on the Q Exactive); and an Acclaim PepMap RSLC C18 analytical column 75 um×250 mm (Thermo Scientific). For TMT analysis the analytical gradient was run at 250 nl/min from 10 to 30% Solvent B (acetonitrile/0.1% formic acid) for 90 minutes, followed by five minutes of 95% Solvent B. Solvent A was 0.1% formic acid. For ribosylated peptides the gradient was run at 250 nl/min from 5 to 28% Solvent B for 30 minutes, followed by five minutes of 95% Solvent B. All reagents were HPLC-grade. […] Unmodified forms were calculated by subtracting the mass of the ADP-ribose (541. 06 Da) from the observed precursor. Modified and unmodified m/z values and corresponding retention time windows were submitted to an inclusion list and analyzed in using the data-independent acquisition module of the Q Exactive (R=35 K).
Recombinant human PARP14 and PARP9 (BPS Bioscience Inc.) proteins, and BSA (Sigma-Aldrich) were incubated with recombinant human STAT1α (OriGene Technologies, Inc.) or STAT6 protein (Sino Biological Inc.) at a final concentration of 5 ng/μl in the presence of 100 μM β-Nicotinamide adenine dinucleotide hydrate (NAD; Sigma-Aldrich) or 6-biotin-17-NAD (Trevigen, Inc.) in 50 mM Tris-HCl buffer (pH 7.4) for 1 hour at room temperature. Ribosylation of STAT1α and STAT6 was detected by LC-MS/MS after trypsin digestion or Western blotting using Streptavidin-HRP (Abcam) after SDS-PAGE. Quantification of the relative abundances of ribosylated STAT1α peptides was completed by calculating the area under the curve (AUC) of the extracted ion chromatograms (XICs) of the monoisotopic peaks of the modified versus unmodified peptides. […]

T1 sequence (Q460N5 whole entry): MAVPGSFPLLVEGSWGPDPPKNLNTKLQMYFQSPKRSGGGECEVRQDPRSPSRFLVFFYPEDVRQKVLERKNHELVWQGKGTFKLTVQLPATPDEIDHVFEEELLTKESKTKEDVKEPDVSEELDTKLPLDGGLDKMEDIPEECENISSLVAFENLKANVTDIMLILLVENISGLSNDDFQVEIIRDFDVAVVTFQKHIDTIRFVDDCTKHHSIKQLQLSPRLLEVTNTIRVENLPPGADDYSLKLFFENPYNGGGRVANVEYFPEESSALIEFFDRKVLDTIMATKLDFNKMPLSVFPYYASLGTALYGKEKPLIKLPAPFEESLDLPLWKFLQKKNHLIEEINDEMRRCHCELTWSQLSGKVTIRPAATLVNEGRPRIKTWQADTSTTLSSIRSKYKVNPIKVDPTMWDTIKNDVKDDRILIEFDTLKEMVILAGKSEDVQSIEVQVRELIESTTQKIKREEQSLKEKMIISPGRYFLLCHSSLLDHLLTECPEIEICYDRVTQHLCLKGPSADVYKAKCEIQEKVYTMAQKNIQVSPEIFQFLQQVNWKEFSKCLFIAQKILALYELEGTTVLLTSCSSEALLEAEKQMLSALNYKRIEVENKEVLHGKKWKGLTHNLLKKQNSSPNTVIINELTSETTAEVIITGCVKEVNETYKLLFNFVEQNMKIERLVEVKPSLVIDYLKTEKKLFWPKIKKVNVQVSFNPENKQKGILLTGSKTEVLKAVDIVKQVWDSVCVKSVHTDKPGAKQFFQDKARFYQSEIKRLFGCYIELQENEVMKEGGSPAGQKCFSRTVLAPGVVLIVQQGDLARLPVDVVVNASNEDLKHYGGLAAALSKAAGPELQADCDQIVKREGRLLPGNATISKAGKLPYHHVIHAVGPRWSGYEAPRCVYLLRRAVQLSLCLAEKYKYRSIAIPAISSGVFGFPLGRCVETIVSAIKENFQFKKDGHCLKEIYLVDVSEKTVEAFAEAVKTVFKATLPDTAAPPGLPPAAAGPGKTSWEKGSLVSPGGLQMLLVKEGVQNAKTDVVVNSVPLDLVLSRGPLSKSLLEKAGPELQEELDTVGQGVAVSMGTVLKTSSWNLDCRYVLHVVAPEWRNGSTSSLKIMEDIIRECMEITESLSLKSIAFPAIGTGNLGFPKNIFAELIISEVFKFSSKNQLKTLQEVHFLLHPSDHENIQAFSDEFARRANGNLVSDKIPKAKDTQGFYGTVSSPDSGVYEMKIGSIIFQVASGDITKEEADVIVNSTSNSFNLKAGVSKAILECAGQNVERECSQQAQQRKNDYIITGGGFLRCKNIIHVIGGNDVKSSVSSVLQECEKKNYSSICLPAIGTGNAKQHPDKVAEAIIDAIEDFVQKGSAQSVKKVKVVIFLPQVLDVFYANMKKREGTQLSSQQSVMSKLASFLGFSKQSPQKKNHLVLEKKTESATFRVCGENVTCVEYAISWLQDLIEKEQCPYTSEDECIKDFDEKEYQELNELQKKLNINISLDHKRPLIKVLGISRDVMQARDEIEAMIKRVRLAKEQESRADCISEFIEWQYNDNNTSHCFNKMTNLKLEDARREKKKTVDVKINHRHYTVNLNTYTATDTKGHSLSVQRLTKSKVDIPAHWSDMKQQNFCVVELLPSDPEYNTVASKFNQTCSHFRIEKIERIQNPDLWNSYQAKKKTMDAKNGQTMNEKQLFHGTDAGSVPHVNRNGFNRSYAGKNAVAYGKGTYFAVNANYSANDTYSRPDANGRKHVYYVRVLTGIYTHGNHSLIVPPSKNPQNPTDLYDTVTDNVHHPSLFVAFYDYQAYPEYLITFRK

In the case of “recombinant PARP9: Recombinant human PARP9 protein (BPS Bioscience Inc.) added to the PARP14 ribosylation assay”, the “PARP14-induced mono ADP-ribosylation at Glu657 and Glu705 of STAT1α” value is reported as “inhibited”, the “PARP14-induced mono ADP-ribosylation at Glu657 and Glu705 of STAT1α” value (listed as PARP9) is reported as “inhibition” and the “ADP-ribosylation of STAT1α by PARP14” value (protein ribosylation assay (Western blot)) is reported as “suppressed; also recorded: inhibits”.
